In patent US20060286117A1, “Neuronally expressed stem cell factor modulates angiogenesis and neural stem cell migration to areas of brain injury” (priority 2003, published 2006):
Entries after “also recorded” stand apart in the source; their conditions may differ.

What was measured:
endogenous NSPCs = assay: In vivo progenitor cell migration, BrdU labeling and intracerebral rmSCF injection; design: species or system mouse; conditions: vs contralateral side and PBS-injected animals, day 7
BMVEC-b = assay: Matrigel tube formation (EC differentiation) assay, BMVEC-b; type: cell-based, bovine; conditions: SCF 20 ng/ml
Experimental: (§1) After the Matrigel (BD Biosciences) formed a solid gel in 24-well plates, serum-starved BMVEC-b cells were seeded on the gel surface at 10^5 cells per well and cultured in treatment medium in the presence or absence of SCF (20 ng/ml). Primary HBMEC were placed on the gel directly at 24×10^3 per well. Tubular formation was observed using an inverted phase contrast microscope, and images were captured at 4 and 18 hr after cell seeding. Each experiment was repeated two or three times.

[1] = tested on: c-Kit, MAPK and PI3K/Akt pathways in HUVEC; assay: Immunoblot of SCF/c-Kit signal transduction, HUVEC; type: cell-based, human
Experimental: (§2) Confluent-grown ECs were treated with 50 ng/ml of SCF for 5, 10, 15, and 30 min after 24 hr of serum starvation. The ECs were collected with RIPA lysis buffer (Upstate, Charlottesville, Va.) containing 50 mM NaF, 1 mM Na3VO4, […], and Protease Inhibitor Cocktail (Roche). The antibodies were purchased from Cell Signaling Technology, Inc. (Beverly, Mass.) or as mentioned otherwise. All the primary antibodies were used in a 1:1000 dilution except for the anti-SCF antibody, which was used in a 1:2000 dilution. The primary antibodies were anti-phospho-c-Kit, anti-phospho-MEK1/2 and anti-MEK1/2, anti-phospho-p44/42 MAPK and anti-p44/42 MAPK, anti-phospho-SAPK/JNK and anti-SAPK/JNK, anti-phospho-p38 MAPK and anti-p38 MAPK, anti-phospho-Akt and anti-Akt, anti-phospho-mTOR and anti-mTOR, anti-phospho-4E-BP1 and anti-4E-BP1, anti-SCF and anti-VEGF (Chemicon, Temecula, Calif.), and anti-β-tubulin (Sigma). Re-blotting was done after membranes were stripped by re-blot kit (Chemicon). Tie2 detection in Matrigel plugs from the in vivo Matrigel assay was carried out by immunoprecipitation and immunoblotting. The gel plugs were carefully separated from muscle and skin and homogenized with RIPA lysis buffer. The resulting total tissue lysates ([…]) were immunoprecipitated with Tie2 antibody (Santa Cruz Biotechnology, Inc., Santa Cruz, Calif.) and then analyzed by immunoblot with Tie2 antibody (Zadeh et al. 2004 Am J Pathol 162:467-476).

HBMEC [2] = assay: EC proliferation, HBMEC exposed to SCF; type: cell-based, human
[3] = tested on: c-Kit, MAPK and PI3K/Akt pathways in HBMEC; assay: Immunoblot of SCF/c-Kit signal transduction, HBMEC; type: cell-based, human; conditions: SCF 50 ng/ml
Experimental: as §2

SVZ stem cells = assay: In vivo SVZ cell tracking by ventricular DiI or GFP adenovirus before SCF injection; design: species or system mouse; conditions: seven days after SCF injection
Experimental: For labeling of neural progenitors in vivo, BrdU (Roche) was administrated intraperitoneally twice a day, at 8-hour intervals, for 14 days (50 mg/kg body weight). Twenty hour from the last BrdU injection, several animals were killed and their brains were sectioned for BrdU immunostaining. Intracerebral injections were administered to the remaining animals. Stereotaxic surgery was performed as described in the “freeze” injury, and the injections were given at the position of 1 mm anterior to the bregma, 1.5 mm lateral to the midline, and 2.5 mm ventral to the dura. Mice received a suspension of rmSCF (3 μg in 3 μl of PBS; R&D systems) or PBS through a Hamilton syringe. Each injection took 15 min. Seven days from the intracranial injection, the animals were killed and the brains were processed for BrdU immunohistochemical analysis. For ventricular injection of DiI (1,1′-dioctadecyl-6,6′-di(4-sulfophenyl)-3,3,3′,3′-tetrametylindocarbocyanine; Molecular Probes) or adenovirus expressing GFP, 2 μl of 0.2% DiI in DMSO or 2 μl of replication incompetent adenovirus (10^8 plaque-forming units per μl) (He, T. C. et al. 1998 PNAS USA 95:2509-2514) was injected 0.5 mm posterior and 0.7 mm lateral to bregma, and 2 mm below the dura matter into the lateral ventricle. […] Seven days after SCF injection, the brains were sectioned and analyzed for DiI or GFP distributions.

bMVEC-B cells = assay: bMVEC-B DNA synthesis by thymidine incorporation (Example 3); type: cell-based; conditions: rmSCF 1 ng/ml to 250 ng/ml, 72 hours
Experimental: To specifically confirm the pro-angiogenic effects of SCF in the brain, bMVEC-B cells were used. The cells were cultured in the presence of different concentrations of rmSCF (1 ng/ml to 250 ng/ml) or 0.1% BSA only medium for 72 hours. The rate of DNA synthesis was measured by thymidine incorporation.

HBMEC [4] = assay: Matrigel tube formation (EC differentiation) assay, HBMEC; type: cell-based, human
Experimental: as §1

[5] = SCF 50 ng/ml after serum starvation

B1: SCF: Stem cell factor protein (R&D Systems), ligand of the c-Kit receptor (protein)
chain: KEICGNPVTDNVKDITKLVANLPNDYMITLNYVAGMDVLPSHCWLRDMVIQLSLSLTTLLDKFSNISEGLSNYSIIDKLGKIVDDLVLCMEENAPKNIKESPKRPETRSFTPEEFFSIFNRSIDAFKDFMVASDTSDCVLSSTLGPEKDSRVSVTKPFMLPPVA
BrdU-positive cells in the SCF-injected area (endogenous NSPCs): Significantly more BrdU labeled cells | time to mature appearing capillary-like structures (BMVEC-b): ≤ 18 h | time to migration in Matrigel (BMVEC-b): ≤ 4 h | duration of p38 MAPK activation ([1]; SCF 50 ng/ml): over 30 min | phosphorylation of 4E-BP1 ([1]; SCF 50 ng/ml): increased phosphorylation of 4E-BP1 | phosphorylation of Akt ([1]; SCF 50 ng/ml): significantly enhanced | phosphorylation of MEK1/2 ([1]; SCF 50 ng/ml): dramatically increased | phosphorylation of p44/42 MAPK ([1]; SCF 50 ng/ml): dramatically increased | time of SAPK/JNK activation following SCF exposure ([1]; SCF 50 ng/ml): 10 to 15 min | duration of c-Kit auto-tyrosine-phosphorylation [1, 5]: 30 min | time of peak c-Kit auto-tyrosine-phosphorylation [1, 5]: 10 to 15 min | HBMEC proliferative response (HBMEC [2]; SCF from 0.1 to 10 ng per ml): dose-dependent growth | EC growth and survival with SCF alone (HBMEC [2]; without the addition of other cytokines such as VEGF): sufficient to sustain human brain microvascular EC and other EC cell growth and survival | phosphorylation of Akt [3]: induced immediate phosphorylation | phosphorylation of SAPK/JNK [3]: could not induce phosphorylation | phosphorylation of c-Kit [3]: induced immediate phosphorylation | phosphorylation of p38 MAPK [3]: could not induce phosphorylation | phosphorylation of p44/42 MAPK [3]: induced immediate phosphorylation | DiI-labelled cells near the SCF injection site (SVZ stem cells; ventricular DiI): greater number of DiI positive cells; also recorded: significant numbers of DiI labelled cells | GFP-positive cells in the SCF-injected cortex (SVZ stem cells; ventricular GFP adenovirus): a large number of GFP-positive cells had migrated | bMVEC-B DNA synthesis (thymidine incorporation) (bMVEC-B cells): stimulated DNA synthesis | time to mature appearing capillary-like structures (HBMEC [4]): ≤ 18 h | time to migration in Matrigel (HBMEC [4]): ≤ 4 h
